± gives the standard error. Fewer inactive variants are shown than the library holds.
B1: glmS ribozyme (parent)
chain: AUAAAAGCGCCAGAACUACAGAAAUGUAGUUGACGAGGAGGAGGUUUAUCGAAUUUUCGGCGGAUGCCUCCAAA

Key:
Details in all cases: with glucosamine-6-phosphate
[1] = variants of: B1; test: self-cleavage kobs at 160 uM GlcN6P; higher = faster cleavage; RNA array
Outline: (§1)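 Barcoded ribozyme variants were transcribed in situ on sequenced MiSeq chips by E. coli RNA polymerase. At 37 °C, a hybridised Cy3 probe tracked them while glucosamine-6-phosphate (40 μM to 10 mM) in HEPES/KCl/Mg(OAc)2 buffer flowed in and tiles were imaged over ~14 h. Per-tile medians of signals normalised to baseline and to non-cleaving reference variants were fit to one- or two-exponential decays, giving kobs. kcat and KM came from weighted Michaelis–Menten fits across concentrations.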

[2] = variants of: B1; test: self-cleavage kobs at 640 uM GlcN6P; higher = faster cleavage; RNA array
Outline: as §1

[3] = variants of: B1; test: self-cleavage kobs at 10000 uM GlcN6P; higher = faster cleavage; RNA array
Outline: as §1

[4] = variants of: B1; test: self-cleavage kobs at 2500 uM GlcN6P; higher = faster cleavage; RNA array
Outline: as §1

| Variant | self-cleavage kobs at 160 uM GlcN6P [1] | self-cleavage kobs at 640 uM GlcN6P [2] | self-cleavage kobs at 10000 uM GlcN6P [3] | self-cleavage kobs at 2500 uM GlcN6P [4] |
| --- | --- | --- | --- | --- |
| G35A G43U U45C A53G G59A | < 1e-05 s⁻¹ | < 1e-05 s⁻¹ | – | – |
| U31G U45G U49A U56A | < 1e-05 s⁻¹ | – | < 1e-05 s⁻¹ | – |
| G43A G60C | < 1e-05 s⁻¹ | < 1e-05 s⁻¹ | < 1e-05 s⁻¹ | < 1e-05 s⁻¹ |
| G13A G43A | < 1e-05 s⁻¹ | < 1e-05 s⁻¹ | < 1e-05 s⁻¹ | – |
| C34A G35C | < 1e-05 s⁻¹ | – | – | < 1e-05 s⁻¹ |
| A36U A64G C68G | 7.51e-05 ± 3e-05 s⁻¹ | – | – | – |
| U46G U49A | < 1e-05 s⁻¹ | < 1e-05 s⁻¹ | < 1e-05 s⁻¹ | < 1e-05 s⁻¹ |
| A12C C50A A53G G63U | < 1e-05 s⁻¹ | – | – | – |
| C16U G32U C70A | < 1e-05 s⁻¹ | – | – | – |
| G29U A36G A52G | < 1e-05 s⁻¹ | – | – | < 1e-05 s⁻¹ |
| C8G U57C G62U | < 1e-05 s⁻¹ | < 1e-05 s⁻¹ | < 1e-05 s⁻¹ | < 1e-05 s⁻¹ |
| U55G C68A | 0.000151 ± 6.4e-05 s⁻¹ | 6.91e-05 ± 2.2e-05 s⁻¹ | 2.8e-05 ± 1.4e-05 s⁻¹ | 9.69e-05 ± 1.8e-05 s⁻¹ |
| C16U C50U U69G | 7.48e-05 ± 1.8e-05 s⁻¹ | 7.53e-05 ± 1.8e-05 s⁻¹ | – | 7.21e-05 ± 1.6e-05 s⁻¹ |
| C34G U56A G62A C67U | < 1e-05 s⁻¹ | – | – | – |
| U55C C61U G63U | < 1e-05 s⁻¹ | < 1e-05 s⁻¹ | – | < 1e-05 s⁻¹ |
| G9U G41C U47G | < 1e-05 s⁻¹ | < 1e-05 s⁻¹ | – | < 1e-05 s⁻¹ |
| G7C C8U A15G G35A | < 1e-05 s⁻¹ | – | – | < 1e-05 s⁻¹ |
| A6U C8U C70U | < 1e-05 s⁻¹ | – | < 1e-05 s⁻¹ | < 1e-05 s⁻¹ |
| G38C G44U C50U | < 1e-05 s⁻¹ | < 1e-05 s⁻¹ | – | – |
| G9U C10U U54G | < 1e-05 s⁻¹ | – | – | – |
| A15U G38C G43C G51U | < 1e-05 s⁻¹ | < 1e-05 s⁻¹ | < 1e-05 s⁻¹ | – |
| U30G U54G U56G | 0.00021 ± 5.7e-05 s⁻¹ | 0.000994 ± 0.00019 s⁻¹ | – | 0.00255 ± 0.00053 s⁻¹ |
| A42C G44A U49C | < 1e-05 s⁻¹ | < 1e-05 s⁻¹ | – | < 1e-05 s⁻¹ |
| C11A A15U C70G | 4.95e-05 ± 1.9e-05 s⁻¹ | 0.000432 ± 0.00013 s⁻¹ | – | – |
| C16U U65A U69A | 3.44e-05 ± 1.7e-05 s⁻¹ | 0.000105 ± 2.4e-05 s⁻¹ | 2.63e-05 ± 1.2e-05 s⁻¹ | 4.97e-05 ± 1.7e-05 s⁻¹ |
| G13U A42C U54A U55G | < 1e-05 s⁻¹ | < 1e-05 s⁻¹ | – | < 1e-05 s⁻¹ |
| G32C C34A C61U C67U | < 1e-05 s⁻¹ | – | – | – |

| Variant | self-cleavage kobs at 160 uM GlcN6P [1] | self-cleavage kobs at 640 uM GlcN6P [2] | self-cleavage kobs at 10000 uM GlcN6P [3] | self-cleavage kobs at 2500 uM GlcN6P [4] |
| --- | --- | --- | --- | --- |
| G35C C67G | < 1e-05 s⁻¹ | < 1e-05 s⁻¹ | – | < 1e-05 s⁻¹ |
| A6G G9A | < 1e-05 s⁻¹ | < 1e-05 s⁻¹ | < 1e-05 s⁻¹ | < 1e-05 s⁻¹ |
| G13A C58A | 5.76e-05 ± 2.1e-05 s⁻¹ | 0.000121 ± 2.5e-05 s⁻¹ | – | 0.000307 ± 7.3e-05 s⁻¹ |
| G43A G59A A64U | < 1e-05 s⁻¹ | – | < 1e-05 s⁻¹ | – |
| A14C G38C | < 1e-05 s⁻¹ | < 1e-05 s⁻¹ | < 1e-05 s⁻¹ | < 1e-05 s⁻¹ |
| A36G A64U C71U | < 1e-05 s⁻¹ | < 1e-05 s⁻¹ | – | < 1e-05 s⁻¹ |
| C8A A12U C67U | < 1e-05 s⁻¹ | < 1e-05 s⁻¹ | – | < 1e-05 s⁻¹ |
| A36C A39G C68U | < 1e-05 s⁻¹ | < 1e-05 s⁻¹ | – | – |
| A12G G35U A53U | < 1e-05 s⁻¹ | – | < 1e-05 s⁻¹ | – |
| G35U G41A A48G C58G | < 1e-05 s⁻¹ | – | – | – |
| G44A G51U | < 1e-05 s⁻¹ | – | < 1e-05 s⁻¹ | – |
| G7A U30C G60U A64C | < 1e-05 s⁻¹ | – | – | < 1e-05 s⁻¹ |
| A14U C50U G51U | < 1e-05 s⁻¹ | < 1e-05 s⁻¹ | < 1e-05 s⁻¹ | < 1e-05 s⁻¹ |
| C11G A14C U31G A33U | < 1e-05 s⁻¹ | < 1e-05 s⁻¹ | – | < 1e-05 s⁻¹ |
| A33U C50U G62C | < 1e-05 s⁻¹ | < 1e-05 s⁻¹ | – | < 1e-05 s⁻¹ |
| C8U G35C C70G | < 1e-05 s⁻¹ | – | – | – |
| C8G G13C U30G C68G C70G | 0.000998 ± 0.00044 s⁻¹ | – | – | – |
| A33G C67G C70A | 4.49e-05 ± 2.2e-05 s⁻¹ | – | – | – |
| A15U G60U C61U | < 1e-05 s⁻¹ | – | – | – |
| A6U C11U | < 1e-05 s⁻¹ | – | – | – |
| G35U G43U A53C C70A | < 1e-05 s⁻¹ | – | – | – |
| A14C U54C U57A G60A C70U | < 1e-05 s⁻¹ | < 1e-05 s⁻¹ | – | < 1e-05 s⁻¹ |
| C8U G41U C58U C68A C70G | < 1e-05 s⁻¹ | – | – | – |
| G32A A42G G43C G51U G66C | < 1e-05 s⁻¹ | < 1e-05 s⁻¹ | – | – |
| A53U U54G U55A U56A | 0.000355 ± 7.8e-05 s⁻¹ | – | – | – |
| G9A A42G G44C U56G U65G | < 1e-05 s⁻¹ | < 1e-05 s⁻¹ | – | – |

Source: the supplement of paper PMC7125110
